Test results reported in US20030166163A1.

What was measured:
[1] = target: human intermediate affinity IL-2Rβγ on TF-1β cells (human) (UniProt P14784); experiment: cell-based or functional assay
[2] = target: human IL-2Rαβγ on Kit-225 cells (human) (UniProt P01589); experiment: cell-based or functional assay
[3] = target: murine high affinity IL-2Rαβγ on CTLL-2 cells (murine) (UniProt P01590); experiment: cell-based or functional assay
[4] = target: FcγR receptors on U937 cells; experiment: cell-based ELISA on U937 cells, detection with FITC-conjugated anti-human IgG Fc F(ab')2

UniProt P14784, sequence (P14784 27-551, chain 1 of 2): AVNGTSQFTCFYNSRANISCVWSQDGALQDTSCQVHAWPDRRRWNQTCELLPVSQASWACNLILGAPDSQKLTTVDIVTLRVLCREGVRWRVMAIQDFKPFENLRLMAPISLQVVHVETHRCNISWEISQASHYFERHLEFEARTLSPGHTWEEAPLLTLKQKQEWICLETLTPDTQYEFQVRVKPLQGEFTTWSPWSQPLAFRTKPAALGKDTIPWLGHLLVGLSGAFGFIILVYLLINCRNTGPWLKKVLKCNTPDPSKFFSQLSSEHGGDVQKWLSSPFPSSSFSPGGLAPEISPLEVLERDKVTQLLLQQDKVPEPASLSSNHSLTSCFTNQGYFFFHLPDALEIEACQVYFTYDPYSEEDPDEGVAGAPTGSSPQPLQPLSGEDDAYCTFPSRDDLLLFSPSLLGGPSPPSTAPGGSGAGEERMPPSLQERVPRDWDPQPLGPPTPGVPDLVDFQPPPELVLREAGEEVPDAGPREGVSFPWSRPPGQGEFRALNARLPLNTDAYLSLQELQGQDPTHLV
UniProt P14784, sequence (P31785 23-369, chain 2 of 2, further chain): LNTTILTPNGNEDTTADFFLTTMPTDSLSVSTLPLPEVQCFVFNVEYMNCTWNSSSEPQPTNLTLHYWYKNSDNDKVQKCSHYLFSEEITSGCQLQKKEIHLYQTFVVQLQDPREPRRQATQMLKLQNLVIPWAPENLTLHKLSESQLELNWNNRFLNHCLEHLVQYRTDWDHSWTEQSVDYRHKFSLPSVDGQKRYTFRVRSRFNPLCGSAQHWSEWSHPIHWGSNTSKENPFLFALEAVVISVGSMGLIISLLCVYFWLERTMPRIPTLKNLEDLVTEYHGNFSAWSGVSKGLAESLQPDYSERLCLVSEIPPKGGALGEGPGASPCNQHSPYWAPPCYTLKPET
UniProt P01589, sequence (P01589 22-272, chain 1 of 3): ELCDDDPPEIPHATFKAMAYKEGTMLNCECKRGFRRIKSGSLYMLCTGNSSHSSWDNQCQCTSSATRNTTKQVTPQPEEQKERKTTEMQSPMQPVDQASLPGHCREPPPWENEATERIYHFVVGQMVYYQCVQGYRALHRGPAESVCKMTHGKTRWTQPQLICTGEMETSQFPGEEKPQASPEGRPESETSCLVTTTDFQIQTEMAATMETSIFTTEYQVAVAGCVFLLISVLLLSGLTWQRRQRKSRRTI
UniProt P01589, sequence (P14784 27-551, chain 2 of 3, further chain): as the sequence (P14784 27-551, chain 1 of 2) above
UniProt P01589, sequence (P31785 23-369, chain 3 of 3, further chain): as the sequence (P31785 23-369, chain 2 of 2, further chain) above
UniProt P01590, sequence (P01590 22-268, chain 1 of 3): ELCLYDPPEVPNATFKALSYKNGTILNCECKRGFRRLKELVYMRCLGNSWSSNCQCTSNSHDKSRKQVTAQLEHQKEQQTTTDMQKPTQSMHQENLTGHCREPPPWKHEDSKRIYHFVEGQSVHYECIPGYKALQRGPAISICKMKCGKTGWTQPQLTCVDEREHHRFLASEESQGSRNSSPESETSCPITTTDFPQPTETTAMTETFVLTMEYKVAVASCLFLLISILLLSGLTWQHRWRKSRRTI
UniProt P01590, sequence (P16297 27-539, chain 2 of 3, further chain): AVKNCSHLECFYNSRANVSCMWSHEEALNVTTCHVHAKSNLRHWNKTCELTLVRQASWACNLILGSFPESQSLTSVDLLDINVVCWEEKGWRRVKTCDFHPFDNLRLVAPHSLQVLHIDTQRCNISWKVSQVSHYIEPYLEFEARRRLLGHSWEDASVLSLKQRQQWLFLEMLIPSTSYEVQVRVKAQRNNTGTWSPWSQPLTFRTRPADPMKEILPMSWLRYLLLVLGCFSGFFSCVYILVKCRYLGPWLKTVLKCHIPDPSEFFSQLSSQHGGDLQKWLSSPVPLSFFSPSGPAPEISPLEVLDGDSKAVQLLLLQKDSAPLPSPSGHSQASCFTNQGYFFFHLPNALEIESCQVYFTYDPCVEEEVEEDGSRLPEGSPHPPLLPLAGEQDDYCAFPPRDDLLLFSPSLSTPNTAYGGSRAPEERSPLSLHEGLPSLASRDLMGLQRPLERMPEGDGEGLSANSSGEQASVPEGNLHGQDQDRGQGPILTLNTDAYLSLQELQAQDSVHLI
UniProt P01590, sequence (P34902 23-369, chain 3 of 3, further chain): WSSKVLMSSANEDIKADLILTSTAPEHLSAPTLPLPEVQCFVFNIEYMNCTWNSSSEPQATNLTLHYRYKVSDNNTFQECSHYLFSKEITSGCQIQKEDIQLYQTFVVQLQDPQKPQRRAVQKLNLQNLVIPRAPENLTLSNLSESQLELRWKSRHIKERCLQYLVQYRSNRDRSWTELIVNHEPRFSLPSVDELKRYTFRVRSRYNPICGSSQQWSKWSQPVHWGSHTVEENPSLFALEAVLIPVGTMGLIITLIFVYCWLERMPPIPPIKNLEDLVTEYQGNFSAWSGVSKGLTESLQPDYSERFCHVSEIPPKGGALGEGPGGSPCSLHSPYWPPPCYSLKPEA

Substance | ED50 Ratio = ED50 [TF1-β]/ED50 [CTLL-2], cell proliferation [1] | ED50 Ratio TF-1β/Kit-225, cell proliferation [1] | ED50, proliferation of CTLL-2 cells [3] | further results
14.18-IL2 | 0.07 |  |  | 
huKS-ala-IL2 | 0.17 | 10.4 | 5 | ED50, proliferation of Kit-225 cells [2]: 0.08; EC50 [4]: 5 µg/mL
N-Glycanase treated huKS-IL2 | 0.45 |  |  | fold increase of the ED50 Ratio (TF-1β/CTLL-2) relative to huKS-IL2 [1]: 2 fold
huKS-ala-IL2(N88R) | 2300 | 52000 | 3 | shift in selectivity (ED50 ratio TF-1β/CTLL-2) relative to KS-ala-IL2 [1]: 20000 fold; ED50, proliferation of Kit 225 cells [2]: 0.13
N-Glycanase treated 14.18-IL2 | 0.21 |  |  | fold increase of the ED50 ratio (TF-1β/CTLL-2) compared to untreated 14.18-IL2 [1]: 3 fold
huKS-IL2 | 0.11 | 4 |  | fold change of the ED50 ratio (TF-1β/CTLL-2) against free IL-2 [1]: 5 fold
